{
  "source": "patent US20240377400A1",
  "about": "“METHODS FOR TREATING A SUBTYPE OF COLORECTAL CANCER” (Cornell University, priority 2021, published 2024)",
  "molecules": {"B1": {"name": "PEGPH20: a PEGylated version of human recombinant PH20 hyaluronidase; clinical-grade pegylated hyaluronidase (Halozyme Therapeutics) (protein, UniProt P38567 36-490, looked up)", "Hyaluronidase PH-20": "LNFRAPPVIPNVPFLWAWNAPSEFCLGKFDEPLDMSLFSFIGSPRINATGQGVTIFYVDRLGYYPYIDSITGVTVNGGIPQKISLQDHLDKAKKDITFYMPVDNLGMAVIDWEEWRPTWARNWKPKDVYKNRSIELVQQQNVQLSLTEATEKAKQEFEKAGKDFLVETIKLGKLLRPNHLWGYYLFPDCYNHHYKKPGYNGSCFNVEIKRNDDLSWLWNESTALYPSIYLNTQQSPVAATLYVRNRVREAIRVSKIPDAKSPLPVFAYTRIVFTDQVLKFLSQDELVYTFGETVALGASGIVIWGTLSIMRSMKSCLLLDNYMETILNPYIINVTLAAKMCSQVLCQEQGVCIRKNWNSSDYLHLNPDNFAIQLEKGGKFTVRGKPTLEDLEQFSEKFYCSCYSTLSCKEKADVKDTDAVDVCIADGVCIDAFLKPPMETEEPQIFYNASPSTLS", "modifications": "PEGylated"}},
  "key": {"[1]": {"test_system": "tumors from Prkci^fl/fl Prkcz^fl/fl Villin-cre (DKO) mice", "assay": "scRNAseq and IHC of DKO mouse intestinal tumors treated with PVHA or Galunisertib", "format": "in vivo", "description": "FIG. 3A illustrates the experimental design: Prkci^fl/flPrkcz^fl/fl (DKO) mice were treated either with PVHA (0.0375 mg/Kg twice per week) or Galunisertib (10 mg twice daily) as described. Intestinal tumors were analyzed by scRNAseq.\nTo identify the mechanism of action of PVHA in the treatment of CMS4 tumors, scRNAseq was performed using 10× Genomics Chromium platform on tumors from Prkci^fl/fl Prkcz^fl/fl Villin-cre (DKO) mice (n=5) treated with PVHA for 14 weeks (n=3), as compared to those treated with Galunisertib (GAL) for 17 weeks (n=3), as shown in experimental design (FIG. 3A). Unsupervised clustering identified tumor and normal epithelial cells as well as stromal and immune cells with selective markers for each population (FIGS. 3B-3C). […] Among tumor clusters (0,4,6), a cell population with transcriptomic similarities to the recently identified “revival stem cells” (RSC; high Clu) in the vehicle treated tumors was identified (FIGS. 3F-3G)."}, "[2]": {"test_system": "MTO-sgPrkci/sgPrkcz tumors", "assay": "Subcutaneous sgPrkci/Prkcz MTO tumors: PEGPH20 combined with anti-PD-L1", "format": "in vivo, mouse", "description": "FIGS. 13B-13F illustrate Subcutaneous injection of sgPrkci/Prkcz MTOs in WT mice treated twice a week with PEGPH20 (0.0375 mg/kg) and αPD-L1 (5 mg/kg) for 4 weeks (n:Veh=14, PEGPH20-treated=15 and PEGPH20-treated with αPD-L1=15). Experimental design (B); tumor volume (C); tumor weight (D); IHC for HA, αSMA, CD8, FOXP3, S100a8, and CD19 of tumors (E) and quantification (F). Scale bars, 100 μm. Results are shown as mean±SEM *p<0.05, **p<0.01, ***p<0.001, ****p<0.0001.\nFor colonoscopy-guided orthotopic injection in the colon submucosa using mouse tumor organoids (MTOs), a 10 μl organoid suspension of equivalent to 40-50 MTOs admixed with 10% Matrigel (Corning) was directly injected into the colonic submucosa of 7 weeks old C57BL/6 mice. 4 weeks after implantation, tumors were collected and analyzed histologically. Orthotopic tumor sizes were measured by caliper after mice were sacrificed. For xenografts using MTOs, a 100 μl cell suspension of equivalent to 0.5×10^6 cells of sgPrkci/Prkcz or sgC MTOs admixed with 30% Matrigel (Corning) was directly injected subcutaneously into the right flank of 7 weeks old C57BL/6 mice. Tumors were allowed to grow for 14 days, and mice were randomly divided to receive vehicle, n=20, or PEGPH20 (0.0375 mg/kg, 2 days each week) via retro-orbital injection, n=18. Tumors were measured twice a week. Mice were euthanized three weeks after treatment and tumors were analyzed histologically. For the combination therapy of anti-PD-L1 (Clone B7-H1, Bioxcell) antibody and PEGPH20, mice were injected with a dose of 5 mg/kg (body mass) of anti-PD-L1 antibody in combination with PEGPH20 (n=15) twice a week for 4 weeks until they were sacrificed."}},
  "data": [
    {"molecule": "B1", "values": [
      {"measurement": "numbers of inferred interactions of tumor epithelial cells with immune cells", "setting": "[1]; CellphoneDB, as compared to GAL treatment", "result": "higher"},
      {"measurement": "Cd81+Pdgfra− fibroblast around the Crypt, IHC", "setting": "[1]; DKO intestine", "result": "induction"},
      {"measurement": "Trophocyte-like fibroblast cluster (Cd34, Cd81)", "setting": "[1]; scRNAseq", "result": "strongly increased"},
      {"measurement": "Cd8 T cells, cell type proportion", "setting": "[1]; scRNAseq T cells", "result": "increase"},
      {"measurement": "proportion of Treg", "setting": "[1]; scRNAseq T cells", "result": "reduce"},
      {"measurement": "fibroblast clusters associated with human CRC (Grem1/Sfrp1, Igf1/Cxcl14), CMS4 subtype (Sfrp2) and tumor initiation (Ptgs2/Spp1)", "setting": "[1]; scRNAseq cell-type proportion", "result": "complete elimination"},
      {"measurement": "tumor cells, cell percentage analysis", "setting": "[1]; scRNAseq epithelial cells, compared to vehicle or GAL-treated", "result": "clear reduction"},
      {"measurement": "tumoral goblet population", "setting": "[1]; scRNAseq goblet cells", "result": "reduction"},
      {"measurement": "T cells, cell-type proportion", "setting": "[1]; scRNAseq immune cells", "result": "increase"},
      {"measurement": "myeloid cells, cell-type proportion", "setting": "[1]; scRNAseq immune cells", "result": "decrease"},
      {"measurement": "TAN1 (anti-tumoral neutrophils)", "setting": "[1]; scRNAseq myeloid cells", "result": "increased"},
      {"measurement": "TAN2 (pro-tumoral neutrophils)", "setting": "[1]; scRNAseq myeloid cells", "result": "reduced"},
      {"measurement": "proportion of dendritic cells", "setting": "[1]; scRNAseq myeloid cells", "result": "increased"},
      {"measurement": "percentage of stromal and immune cells", "setting": "[1]; scRNAseq, PVHA 0.0375 mg/Kg twice per week, 14 weeks, Galunisertib 10 mg twice daily, 17 weeks", "result": "decreased"},
      {"measurement": "mature goblets proportion", "setting": "[1]; scRNAseq, as compared to GAL", "result": "increased"},
      {"measurement": "Lgr5 Stem Cells population", "setting": "[1]; scRNAseq, population lost in the DKO intestine", "result": "recovered"},
      {"measurement": "number of stromal cells", "setting": "[1]; scRNAseq, without apparent changes in cell-type proportions", "result": "reduced"},
      {"measurement": "Clu IHC", "setting": "[1]; tumor area", "result": "decrease"},
      {"measurement": "immature goblets, IHC double staining for Alcian blue and Lyz1", "setting": "[1]; tumor area", "result": "reduction"},
      {"measurement": "CD8+ T and B cells in the tumor", "setting": "[2]; IHC CD8, CD19", "result": "sufficient to bring"},
      {"measurement": "amount of immunosuppressive myeloid and Tregs", "setting": "[2]; IHC S100a8, FOXP3", "result": "reduce"},
      {"measurement": "HA content and intensity of αSMA+ stromal staining", "setting": "[2]; IHC, PEGPH20 0.0375 mg/kg, 4 weeks", "result": "reduced"}
    ]}
  ]
}
